Source: US20240279357A1 (THERINI BIO, published 2024)

Biological target: T1, human Fibrin (human fibrinogen clotted on the plate with thrombin and CaCl2) (human, UniProt P02671 36-629; P02675 45-491; P02679 27-437)
T1 construct: Made in the ELISA wells from the human fibrinogen by thrombin and CaCl2, 1 hour at 37 C, then dried
T1 sequence (looked up) 1: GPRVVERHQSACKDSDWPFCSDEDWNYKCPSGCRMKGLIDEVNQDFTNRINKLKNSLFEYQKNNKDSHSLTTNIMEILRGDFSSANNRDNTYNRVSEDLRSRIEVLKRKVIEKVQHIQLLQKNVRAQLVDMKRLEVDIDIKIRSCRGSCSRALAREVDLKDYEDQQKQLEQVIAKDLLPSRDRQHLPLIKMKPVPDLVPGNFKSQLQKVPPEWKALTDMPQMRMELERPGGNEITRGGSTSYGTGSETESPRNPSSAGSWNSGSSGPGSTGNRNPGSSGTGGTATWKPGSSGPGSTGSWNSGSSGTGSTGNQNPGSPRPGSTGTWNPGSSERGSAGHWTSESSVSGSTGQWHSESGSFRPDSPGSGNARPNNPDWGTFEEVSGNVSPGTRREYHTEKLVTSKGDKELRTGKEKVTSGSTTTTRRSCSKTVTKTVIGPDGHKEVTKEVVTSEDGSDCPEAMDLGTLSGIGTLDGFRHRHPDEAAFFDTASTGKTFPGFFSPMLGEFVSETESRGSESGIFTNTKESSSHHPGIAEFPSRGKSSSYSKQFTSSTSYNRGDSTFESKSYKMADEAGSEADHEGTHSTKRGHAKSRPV
T1 sequence (looked up) 2: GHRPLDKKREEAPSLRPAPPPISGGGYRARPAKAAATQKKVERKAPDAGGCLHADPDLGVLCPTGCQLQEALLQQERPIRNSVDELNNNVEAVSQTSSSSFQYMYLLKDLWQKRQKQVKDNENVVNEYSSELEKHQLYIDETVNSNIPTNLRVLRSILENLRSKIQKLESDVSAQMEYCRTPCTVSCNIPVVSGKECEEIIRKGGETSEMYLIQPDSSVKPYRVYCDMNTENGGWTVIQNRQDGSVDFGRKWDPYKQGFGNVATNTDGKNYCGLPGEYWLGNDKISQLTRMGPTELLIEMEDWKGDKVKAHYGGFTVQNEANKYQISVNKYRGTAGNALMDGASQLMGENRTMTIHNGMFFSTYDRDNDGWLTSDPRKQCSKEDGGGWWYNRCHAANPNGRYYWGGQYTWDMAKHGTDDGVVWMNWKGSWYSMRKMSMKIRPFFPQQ
T1 sequence (looked up) 3: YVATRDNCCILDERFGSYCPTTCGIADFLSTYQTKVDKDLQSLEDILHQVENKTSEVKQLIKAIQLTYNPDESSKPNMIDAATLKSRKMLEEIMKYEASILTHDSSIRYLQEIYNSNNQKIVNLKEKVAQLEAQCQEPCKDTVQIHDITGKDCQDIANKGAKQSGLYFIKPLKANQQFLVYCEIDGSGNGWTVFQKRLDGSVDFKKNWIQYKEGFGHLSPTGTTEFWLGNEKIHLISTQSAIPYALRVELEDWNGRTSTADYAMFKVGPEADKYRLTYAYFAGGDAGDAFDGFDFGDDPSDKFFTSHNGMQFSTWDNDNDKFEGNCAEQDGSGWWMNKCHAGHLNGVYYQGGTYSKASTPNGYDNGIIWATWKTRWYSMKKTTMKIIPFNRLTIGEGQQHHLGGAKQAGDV
Experiment: ELISA on plate-coated human fibrin (fibrinogen clotted in the well with thrombin/CaCl2), antibody titrated, A450
Procedure: The humanized antibodies affinity for fibrinogen, fibrin and P2 peptide were assessed by Enzyme-linked immunosorbent assays (ELISA)s (FIGS. 7-16). ELISAs for fibrinogen binding were performed using plasminogen-depleted human Fibrinogen (EMD/Calbiochem). […] IgG1-depleted Fibrinogen (FGN) in 20 mM HEPES/Saline buffer was added to each well of half of a 96-well Nunc Maxisorp™ ELISA plate. The ELISAs for fibrin binding were prepared by adding 50 mL of 20 mM HEPES/Saline buffer containing 14 mM CaCl₂, and 2 units thrombin to each well of the second half of the Nunc Maxisorp™ ELISA plate. 50 mL of 20 mg fibrinogen in 20 mM HEPES/Saline buffer were then added to a total volume of 100 mL. Plates were placed in a 37° C. incubator for 1 hour to allow fibrinogen to clot into fibrin and subsequently placed overnight into a plate dryer at 37° C. overnight. The ELISAs for P2 peptide were prepared by addition of […] of 30 mM P2 peptide in 20 mM HEPES/Saline buffer to each well of a 96-well Nunc Maxisorp™ ELISA plate. Plates were transferred to the plate dryer and dried overnight at 37° C. All ELISAs were preformed using Nunc MaxiSorp 96-well ELISA plates. Blocking was performed using 100 mL 5% BSA in DPBS are incubated at RT for 1 hour. Plates were washed 5× in DPBS containing 0.05% Tween-20 (EL406 was used for the addition of wash buffer only). […]

B1: humanized VH4/Vκ1 antibody (antibody, IgG1, V domains shown)
VH: QVQLVQSGAEVKKPGSSVKVSCKASGYTFTSYWIHWVRQAPGQGLEWIGLIDPSDSYTNYNQKFRGRVTITVDTSTSTAYMELSSLRSEDTAVYYCASSDPTGCWGQGTTVTVSS
VL: DIVMTQAAFSNPITPGTPASISCRSSKSLLHSSGITYLSWYLQKPGQSPQLLIYQMSNLASGVPDRFSSSGSGTDFTLRISRVEAEDVGVYYCAQNLELPLTFGQGTKLEIK
notes: Expressed as IgG1; also called VH4/VK1; VH4Vk1
EC50 (read off the curve): ~300 nM
